Measured values published in paper PMC9482650, “Quantitative fragmentomics allow affinity mapping of interactomes” (Nature Communications, 2022).

T1: SNTA1, Q13424
T1 sequence (Q13424 82-180, limits assumed, looked up): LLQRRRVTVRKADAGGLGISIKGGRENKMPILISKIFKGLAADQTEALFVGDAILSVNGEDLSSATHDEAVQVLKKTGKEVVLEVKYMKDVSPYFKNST

T2: MPP6, Q9NZW5
T2 sequence (Q9NZW5 125-219, limits assumed, looked up): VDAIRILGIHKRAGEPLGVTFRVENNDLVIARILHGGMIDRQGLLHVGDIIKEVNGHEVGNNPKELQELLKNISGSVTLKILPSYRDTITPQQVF

T3: APBA2_1, Q99767
T3 sequence (Q99767 563-664, limits assumed, looked up): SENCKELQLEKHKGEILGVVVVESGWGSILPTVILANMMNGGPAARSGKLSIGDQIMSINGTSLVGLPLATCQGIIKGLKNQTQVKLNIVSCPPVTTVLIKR

T4: MPDZ_10, O75970
T4 sequence (O75970 1624-1722, limits assumed, looked up): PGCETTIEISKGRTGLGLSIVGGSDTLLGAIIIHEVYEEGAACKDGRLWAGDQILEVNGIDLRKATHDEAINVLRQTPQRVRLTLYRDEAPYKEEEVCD

T5: HTRA3, P83110
T5 sequence (P83110 354-453, limits assumed, looked up): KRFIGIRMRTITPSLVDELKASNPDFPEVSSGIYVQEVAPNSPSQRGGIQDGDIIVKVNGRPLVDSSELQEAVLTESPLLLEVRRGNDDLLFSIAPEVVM

T6: DLG3_1, Q92796
T6 sequence (Q92796 125-227, limits assumed, looked up): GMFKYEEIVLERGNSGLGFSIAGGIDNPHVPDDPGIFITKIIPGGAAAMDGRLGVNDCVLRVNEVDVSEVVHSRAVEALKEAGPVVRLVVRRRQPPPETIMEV

T7: RAPGEF6, Q8TEU7
T7 sequence (Q8TEU7 525-625, limits assumed, looked up): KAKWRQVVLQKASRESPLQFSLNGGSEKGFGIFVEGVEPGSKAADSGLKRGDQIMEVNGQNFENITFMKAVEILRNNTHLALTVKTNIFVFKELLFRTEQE

T8: LNX2_2, Q8N448
T8 sequence (Q8N448 334-432, limits assumed, looked up): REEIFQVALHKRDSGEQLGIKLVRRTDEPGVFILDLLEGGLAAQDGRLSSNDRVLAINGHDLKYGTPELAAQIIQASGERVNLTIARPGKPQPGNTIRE

T9: DFNB31_3, Q9P202
T9 sequence (Q9P202 811-907, limits assumed, looked up): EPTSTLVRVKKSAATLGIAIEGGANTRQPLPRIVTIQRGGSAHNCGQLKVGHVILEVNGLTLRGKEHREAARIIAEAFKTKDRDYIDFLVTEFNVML

T10: TJP3_3, O95049
T10 sequence (O95049 375-456, limits assumed, looked up): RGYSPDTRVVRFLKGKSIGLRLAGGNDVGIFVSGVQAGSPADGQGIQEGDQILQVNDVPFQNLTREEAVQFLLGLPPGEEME

T11: NHERF3_3, Q5T2W1
T11 sequence (Q5T2W1 238-333, limits assumed, looked up): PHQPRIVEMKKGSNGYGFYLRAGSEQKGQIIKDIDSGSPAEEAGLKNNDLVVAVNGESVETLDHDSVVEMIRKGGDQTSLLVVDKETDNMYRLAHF

T12: NHERF3_1, Q5T2W1
T12 sequence (Q5T2W1 4-100, limits assumed, looked up): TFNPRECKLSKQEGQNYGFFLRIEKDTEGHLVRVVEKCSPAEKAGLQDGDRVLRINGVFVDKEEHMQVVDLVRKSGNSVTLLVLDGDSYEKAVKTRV


Columns and labels:
Experiment in all cases: holdup assay
Set-up in all cases: key: below the threshold = too weak to quantify, mostly under pKd 3.1 to 4
Details in all cases: plain residues with an end cap or a label only (N-terminal biotin on a linker: ado-ado)
SNTA1, Q13424 = biological target: T1, SNTA1, Q13424
MPP6, Q9NZW5 = biological target: T2, MPP6, Q9NZW5
LNX1_2, Q8TBB1 = biological target: LNX1_2, Q8TBB1
Chain of LNX1_2, Q8TBB1 (Q8TBB1 371-470): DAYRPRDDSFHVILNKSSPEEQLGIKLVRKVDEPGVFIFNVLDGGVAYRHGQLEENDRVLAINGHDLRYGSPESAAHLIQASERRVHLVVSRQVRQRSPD

APBA2_1, Q99767 = biological target: T3, APBA2_1, Q99767
MPDZ_10, O75970 = biological target: T4, MPDZ_10, O75970
HTRA3, P83110 = biological target: T5, HTRA3, P83110
NHERF4_1, Q86UT5-2 = biological target: NHERF4_1, Q86UT5-2
Chain of NHERF4_1, Q86UT5-2 (Q86UT5 other isoform, or with tags, fused parts or gaps): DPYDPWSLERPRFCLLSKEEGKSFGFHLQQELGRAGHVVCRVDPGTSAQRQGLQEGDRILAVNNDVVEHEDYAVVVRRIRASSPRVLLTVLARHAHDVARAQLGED

DLG1_2, Q12959 = biological target: DLG1_2, Q12959
Chain of DLG1_2, Q12959 (Q12959 314-412): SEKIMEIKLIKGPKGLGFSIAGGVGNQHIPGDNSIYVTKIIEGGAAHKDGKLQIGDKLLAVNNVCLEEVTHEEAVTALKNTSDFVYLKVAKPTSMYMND

DLG3_1, Q92796 = biological target: T6, DLG3_1, Q92796
MAGI1_2, Q96QZ7 = biological target: MAGI1_2, Q96QZ7
Chain of MAGI1_2, Q96QZ7 (Q96QZ7 456-580): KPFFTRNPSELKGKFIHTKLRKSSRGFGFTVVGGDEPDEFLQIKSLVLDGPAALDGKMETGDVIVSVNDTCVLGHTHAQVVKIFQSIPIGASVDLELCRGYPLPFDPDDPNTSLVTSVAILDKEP

LDB3, O75112 = biological target: LDB3, O75112
Chain of LDB3, O75112 (O75112 1-94): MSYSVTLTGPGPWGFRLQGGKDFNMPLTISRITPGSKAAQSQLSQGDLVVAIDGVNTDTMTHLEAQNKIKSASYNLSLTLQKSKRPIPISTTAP

RAPGEF6, Q8TEU7 = biological target: T7, RAPGEF6, Q8TEU7
DLG1_3, Q12959 = biological target: DLG1_3, Q12959
Chain of DLG1_3, Q12959 (Q12959 457-571): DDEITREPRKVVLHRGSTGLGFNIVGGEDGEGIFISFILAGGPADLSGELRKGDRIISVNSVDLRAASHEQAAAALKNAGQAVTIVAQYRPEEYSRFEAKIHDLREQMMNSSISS

Inadl_2, Q8NI35 = biological target: Inadl_2, Q8NI35
Chain of Inadl_2, Q8NI35 (Q8NI35 238-335): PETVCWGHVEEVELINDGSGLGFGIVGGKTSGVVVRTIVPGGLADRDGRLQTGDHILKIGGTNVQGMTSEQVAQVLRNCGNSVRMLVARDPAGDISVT

PDLIM1, O00151 = biological target: PDLIM1, O00151
Chain of PDLIM1, O00151 (O00151 1-87): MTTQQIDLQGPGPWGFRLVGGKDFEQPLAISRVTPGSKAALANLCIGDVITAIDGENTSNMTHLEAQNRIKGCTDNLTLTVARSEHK

SCRIB_3, Q14160 = biological target: SCRIB_3, Q14160
Chain of SCRIB_3, Q14160 (Q14160 999-1103): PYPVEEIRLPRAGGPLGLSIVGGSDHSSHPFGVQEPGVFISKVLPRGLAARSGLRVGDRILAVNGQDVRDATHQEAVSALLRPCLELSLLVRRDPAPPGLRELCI

PICK1, Q9NRD5 = biological target: PICK1, Q9NRD5
Chain of PICK1, Q9NRD5 (Q9NRD5 17-115): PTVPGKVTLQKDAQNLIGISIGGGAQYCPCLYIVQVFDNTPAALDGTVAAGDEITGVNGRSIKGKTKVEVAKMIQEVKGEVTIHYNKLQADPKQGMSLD

AHNAK1, Q09666 = biological target: AHNAK1, Q09666
Chain of AHNAK1, Q09666 (Q09666 4-100): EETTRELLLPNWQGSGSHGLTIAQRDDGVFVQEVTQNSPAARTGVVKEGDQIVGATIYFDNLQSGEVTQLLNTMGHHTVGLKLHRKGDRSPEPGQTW

LNX2_2, Q8N448 = biological target: T8, LNX2_2, Q8N448
GORASP1, Q9BQQ3 = biological target: GORASP1, Q9BQQ3
Chain of GORASP1, Q9BQQ3 (Q9BQQ3 1-208): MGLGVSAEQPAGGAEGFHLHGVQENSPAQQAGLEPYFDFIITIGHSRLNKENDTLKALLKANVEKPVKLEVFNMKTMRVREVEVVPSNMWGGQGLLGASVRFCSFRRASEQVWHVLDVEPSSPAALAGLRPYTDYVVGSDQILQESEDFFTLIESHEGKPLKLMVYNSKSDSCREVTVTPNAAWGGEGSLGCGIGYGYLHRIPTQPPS

DFNB31_3, Q9P202 = biological target: T9, DFNB31_3, Q9P202
TJP3_3, O95049 = biological target: T10, TJP3_3, O95049
Inadl_9, Q8NI35 = biological target: Inadl_9, Q8NI35
Chain of Inadl_9, Q8NI35 (Q8NI35 1530-1615): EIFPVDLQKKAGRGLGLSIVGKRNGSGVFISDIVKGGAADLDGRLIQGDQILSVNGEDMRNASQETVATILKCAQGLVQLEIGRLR

NHERF3_3, Q5T2W1 = biological target: T11, NHERF3_3, Q5T2W1
NHERF3_1, Q5T2W1 = biological target: T12, NHERF3_1, Q5T2W1
NOS1, P29475 = biological target: NOS1, P29475
Chain of NOS1, P29475 (P29475 9-101): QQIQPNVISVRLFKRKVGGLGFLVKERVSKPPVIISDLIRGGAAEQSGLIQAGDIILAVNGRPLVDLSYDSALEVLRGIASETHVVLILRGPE

Row | Binder | pKd (SNTA1, Q13424) | pKd (MPP6, Q9NZW5) | pKd (LNX1_2, Q8TBB1) | pKd (APBA2_1, Q99767) | pKd (MPDZ_10, O75970) | pKd (HTRA3, P83110) | pKd (NHERF4_1, Q86UT5-2) | pKd (DLG1_2, Q12959) | pKd (DLG3_1, Q92796) | pKd (MAGI1_2, Q96QZ7) | pKd (LDB3, O75112) | pKd (RAPGEF6, Q8TEU7) | pKd (DLG1_3, Q12959) | pKd (Inadl_2, Q8NI35) | pKd (PDLIM1, O00151) | pKd (SCRIB_3, Q14160) | pKd (PICK1, Q9NRD5) | pKd (AHNAK1, Q09666) | pKd (LNX2_2, Q8N448) | pKd (GORASP1, Q9BQQ3) | also measured
1 | LESTTVGTSV [KARS1, Q15046] | below the threshold | below the threshold | below the threshold | below the threshold | 3.72 | below the threshold | below the threshold | 4.34 | 3.98 | below the threshold | below the threshold | below the threshold | 3.78 | below the threshold | below the threshold | 4.4 | below the threshold | below the threshold | 4.39 | below the threshold | pKd (DFNB31_3, Q9P202): below the threshold; pKd (TJP3_3, O95049): below the threshold; pKd (Inadl_9, Q8NI35): 3.67; pKd (NHERF3_3, Q5T2W1): below the threshold; pKd (NHERF3_1, Q5T2W1): 4.13; pKd (NOS1, P29475): 3.86
2 | TNSRHGETTV [FZD2, Q14332] | 4.64 | below the threshold | 3.78 | below the threshold | below the threshold | below the threshold | below the threshold | 5.17 | 4.33 | 4.2 | below the threshold | below the threshold | 4.14 | below the threshold | below the threshold | 4.62 | below the threshold | below the threshold | 4.83 | 3.88 | pKd (DFNB31_3, Q9P202): below the threshold; pKd (TJP3_3, O95049): below the threshold; pKd (Inadl_9, Q8NI35): 3.74; pKd (NHERF3_3, Q5T2W1): below the threshold; pKd (NHERF3_1, Q5T2W1): below the threshold; pKd (NOS1, P29475): 3.79
3 | VKRNSKETVV [MARCHF3, Q86UD3] | 5.37 | below the threshold | 3.68 | below the threshold | below the threshold | below the threshold | below the threshold | 6.11 | 4.77 | 4.6 | below the threshold | below the threshold | 4.32 | below the threshold | below the threshold | 4.51 | below the threshold | below the threshold | 5.2 | 4.09 | pKd (DFNB31_3, Q9P202): 3.92; pKd (TJP3_3, O95049): below the threshold; pKd (Inadl_9, Q8NI35): below the threshold; pKd (NHERF3_3, Q5T2W1): below the threshold; pKd (NHERF3_1, Q5T2W1): below the threshold; pKd (NOS1, P29475): 4.03

The next lines start with results.

Row | pKd (SNTA1, Q13424) | pKd (MPP6, Q9NZW5) | pKd (LNX1_2, Q8TBB1) | pKd (APBA2_1, Q99767) | pKd (MPDZ_10, O75970) | pKd (HTRA3, P83110) | pKd (NHERF4_1, Q86UT5-2) | pKd (DLG1_2, Q12959) | pKd (DLG3_1, Q92796) | pKd (MAGI1_2, Q96QZ7) | pKd (LDB3, O75112) | pKd (RAPGEF6, Q8TEU7) | pKd (DLG1_3, Q12959) | pKd (Inadl_2, Q8NI35) | pKd (PDLIM1, O00151) | pKd (SCRIB_3, Q14160) | pKd (PICK1, Q9NRD5) | pKd (AHNAK1, Q09666) | pKd (LNX2_2, Q8N448) | pKd (GORASP1, Q9BQQ3) | Binder | also measured
4 | 3.92 | below the threshold | 3.8 | below the threshold | below the threshold | below the threshold | below the threshold | 5.43 | 4.26 | 4.76 | below the threshold | below the threshold | 3.63 | below the threshold | below the threshold | 3.67 | 3.95 | below the threshold | 4.84 | 4.19 | ILRKSTTTTV [PRR16, Q569H4] | pKd (DFNB31_3, Q9P202): below the threshold; pKd (TJP3_3, O95049): below the threshold; pKd (Inadl_9, Q8NI35): below the threshold; pKd (NHERF3_3, Q5T2W1): below the threshold; pKd (NHERF3_1, Q5T2W1): below the threshold; pKd (NOS1, P29475): below the threshold
5 | below the threshold | below the threshold | below the threshold | below the threshold | 3.64 | below the threshold | below the threshold | 4.61 | 3.49 | 5.08 | below the threshold | below the threshold | below the threshold | below the threshold | below the threshold | 3.55 | below the threshold | below the threshold | below the threshold | below the threshold | STKRKLASAV [NCF1, P14598] | pKd (DFNB31_3, Q9P202): 3.85; pKd (TJP3_3, O95049): below the threshold; pKd (Inadl_9, Q8NI35): below the threshold; pKd (NHERF3_3, Q5T2W1): below the threshold; pKd (NHERF3_1, Q5T2W1): below the threshold; pKd (NOS1, P29475): 4.07
6 | 4.51 | below the threshold | below the threshold | below the threshold | below the threshold | below the threshold | 3.7 | 5.31 | 4.29 | 3.81 | below the threshold | below the threshold | below the threshold | below the threshold | below the threshold | 3.87 | below the threshold | below the threshold | 4.05 | below the threshold | NIAESLESLV [PTPRZ1, P23471] | pKd (DFNB31_3, Q9P202): below the threshold; pKd (TJP3_3, O95049): below the threshold; pKd (Inadl_9, Q8NI35): 3.76; pKd (NHERF3_3, Q5T2W1): below the threshold; pKd (NHERF3_1, Q5T2W1): 4.59; pKd (NOS1, P29475): 3.92
